According to patent US20240076389A1 (NATIONAL RESEARCH COUNCIL OF CANADA, published 2024):

T1: rhTyro-3 (human, UniProt Q06418 41-429)
T1 construct: extracellular domain
T1 sequence (looked up): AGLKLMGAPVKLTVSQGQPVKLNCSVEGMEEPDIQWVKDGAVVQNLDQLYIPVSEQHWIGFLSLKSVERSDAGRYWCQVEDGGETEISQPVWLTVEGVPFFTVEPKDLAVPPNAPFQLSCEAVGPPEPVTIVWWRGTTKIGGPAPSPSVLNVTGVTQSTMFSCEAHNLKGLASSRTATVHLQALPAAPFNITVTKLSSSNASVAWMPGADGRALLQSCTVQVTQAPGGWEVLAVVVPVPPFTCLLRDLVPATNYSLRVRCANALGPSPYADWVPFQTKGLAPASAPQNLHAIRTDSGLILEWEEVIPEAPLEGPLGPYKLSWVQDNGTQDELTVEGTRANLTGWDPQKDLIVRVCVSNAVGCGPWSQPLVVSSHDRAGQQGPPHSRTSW

T2: recombinant human AXL extracellular domain, C-terminally His8-tagged (rhAXL-ECD) (human, UniProt P30530 26-451)
T2 construct: Made in CHO cells; also called (rh)AXL-ECD His8; human AXL ECD
T2 sequence: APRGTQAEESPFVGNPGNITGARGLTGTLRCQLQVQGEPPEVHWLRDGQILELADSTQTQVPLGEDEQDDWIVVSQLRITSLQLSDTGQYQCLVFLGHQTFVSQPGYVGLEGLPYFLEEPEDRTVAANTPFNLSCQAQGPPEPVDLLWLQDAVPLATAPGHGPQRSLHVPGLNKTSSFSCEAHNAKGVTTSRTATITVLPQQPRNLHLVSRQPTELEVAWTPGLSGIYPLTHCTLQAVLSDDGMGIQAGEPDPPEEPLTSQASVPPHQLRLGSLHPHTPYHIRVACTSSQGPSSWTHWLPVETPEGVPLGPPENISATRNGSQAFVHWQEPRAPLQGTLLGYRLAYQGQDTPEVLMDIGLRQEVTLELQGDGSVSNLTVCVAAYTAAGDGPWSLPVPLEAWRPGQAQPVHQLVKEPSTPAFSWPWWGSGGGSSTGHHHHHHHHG

T3: rhMER-ECD (human, UniProt Q12866 21-505)
T3 construct: extracellular domain
T3 sequence (looked up): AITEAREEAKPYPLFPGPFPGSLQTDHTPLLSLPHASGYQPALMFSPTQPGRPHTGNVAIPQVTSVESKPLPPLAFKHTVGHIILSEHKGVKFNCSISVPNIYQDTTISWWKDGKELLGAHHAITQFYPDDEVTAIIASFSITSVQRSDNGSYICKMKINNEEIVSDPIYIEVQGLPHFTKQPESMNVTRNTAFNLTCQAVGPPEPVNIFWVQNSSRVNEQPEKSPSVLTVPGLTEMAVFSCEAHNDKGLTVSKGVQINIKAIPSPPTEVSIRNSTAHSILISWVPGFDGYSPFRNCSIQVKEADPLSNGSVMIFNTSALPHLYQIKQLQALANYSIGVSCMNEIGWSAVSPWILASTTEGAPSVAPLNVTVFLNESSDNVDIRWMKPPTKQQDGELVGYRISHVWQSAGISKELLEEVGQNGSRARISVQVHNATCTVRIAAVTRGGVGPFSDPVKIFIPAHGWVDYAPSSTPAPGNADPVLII


How the values were obtained:
[1] = target: T1, rhTyro-3; test: ELISA, antigen coated at 5 µg/ml, mAb 10 µg/ml
Procedure: (§1) To evaluate the cross-reactivity of the mAb to other members of the TAM receptor tyrosine kinase subfamily, binding of the mAb to rhAXL-ECD, rhMER-ECD, rhTyro-3 and BSA (negative control) was measured by ELISA. 96-w half-area plates (Costar) were coated with 25 μl of rhAXL-ECD, rhMER-ECD, rhTyro-3 or BSA at 5 μg/ml in PBS and incubated overnight at 4° C. Microplates were washed 3 times with PBS, blocked with PBS-BSA 1%, and 25 μl of a 10 μg/ml diluted in PBS-BSA 1% were added and incubated at 37° C., 5% CO₂ for 2 hours. Plates were washed 4 times with PBS-TWEEN™ 20 0.05% and incubated for one hour at 37° C., 5% CO₂ with 25 μl of secondary antibody alkaline phosphatase conjugated F(ab)′2 goat anti-mouse IgG (H+L) (Jackson Immunoresearch) diluted 1/5000 in blocking buffer. After 4 washes with PBS-Tween 20 0.05%, 25 μl of a 1 mg/ml pN PP substrate solution was added and further incubated for one hour at 37° C. OD405 nm measurements were done using a microplate reader (Spectramax 340 PC, Molecular Devices).

[2] = target: T2, recombinant human AXL extracellular …; test: ELISA, antigen coated at 5 µg/ml, mAb 10 µg/ml
Procedure: as §1

[3] = target: T3, rhMER-ECD; test: ELISA, antigen coated at 5 µg/ml, mAb 10 µg/ml
Procedure: as §1

[4] = target: T4, BSA (UniProt P02769 25-607); test: ELISA, antigen coated at 5 µg/ml, mAb 10 µg/ml
T4 construct: also called BSA (negative control)
T4 sequence (P02769 25-607 limits assumed): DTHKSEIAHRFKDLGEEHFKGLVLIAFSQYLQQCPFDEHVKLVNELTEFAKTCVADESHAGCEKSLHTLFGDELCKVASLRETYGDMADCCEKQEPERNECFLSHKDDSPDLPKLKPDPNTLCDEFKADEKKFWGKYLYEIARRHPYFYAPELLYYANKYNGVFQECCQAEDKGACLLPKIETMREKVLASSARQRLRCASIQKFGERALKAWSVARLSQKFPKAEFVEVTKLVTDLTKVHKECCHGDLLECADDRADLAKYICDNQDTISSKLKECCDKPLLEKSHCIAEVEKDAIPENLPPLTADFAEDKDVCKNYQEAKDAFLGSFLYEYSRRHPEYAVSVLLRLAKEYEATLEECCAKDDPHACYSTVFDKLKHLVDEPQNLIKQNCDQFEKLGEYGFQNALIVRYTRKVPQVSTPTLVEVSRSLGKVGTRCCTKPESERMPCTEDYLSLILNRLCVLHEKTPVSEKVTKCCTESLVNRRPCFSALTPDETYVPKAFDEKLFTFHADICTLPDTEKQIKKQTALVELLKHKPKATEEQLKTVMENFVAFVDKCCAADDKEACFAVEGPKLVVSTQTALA
Procedure: as §1

[5] = target: T1, rhTyro-3; test: ELISA on coated antigen
Procedure: as §1

[6] = target: T3, rhMER-ECD; test: ELISA on coated antigen
Procedure: as §1

| Binder | OD405 nm [1] [OD405] | OD405 nm [2] [OD405] | OD405 nm [3] [OD405] | OD405 nm [4] [OD405] | binding result [5] | binding result [6] |
| --- | --- | --- | --- | --- | --- | --- |
| F107-8D12 (antibody, V domains shown, also called F107-8D12-2; mAb 8D12) VH: QVQLQQPGAELVKPGASVQLSCKASGYTFISFWINWVKQRPGQGLEWMGNIFPGSSSTNYNEKFKSKATLTVDKSSSTAYMQLSSLTSEDSAVYFCARDYYGGSPDYWGQGTTLTVSS VL: DIVMSQSPSSLAVSAGERVTMSCKSSQSLLNTRTRKNYLAWYQQKPGQSPKLLIYWASTRESGVPDRFTGSGSGTDFTLTISSVQAEDLAVYYCKQSYNLWTFGGGTKLEIK | 0 | 2.59 | 0 | 0 | no binding (tested: 10 µg/ml) | no binding (tested: 10 µg/ml) |
| F107-7H5 (antibody, V domains shown, also called F107-7H5-2; mAb 7H5) VH: QVQLQQPGAELVKPGASVKLSCKASGYTFTSYWINWVKQRPGQGLEWIGNIYPDSSSTNYNEKFKSKATLTVDKSSTTAYIQFSSLTSEDSAVYYCTRDTYGGSPDYWGQGTTLTVSS VL: DIVMSQSPSSLAVSAGEKVTMSCKSSQSLLNSRTRKIYLAWYQQKPGQSPKLLIYWASTRQSGVPDRFTGSGSGTDFTLTISSVQAEDLAVYYCKQSYNLWTFGGGTKLEIK | 0 | 2.4 | 0 | 0 | no binding (tested: 10 µg/ml) | no binding (tested: 10 µg/ml) |
| F107-10G1 (antibody, V domains shown, also called F107-10G1-3) VH: EVNLVESGGGVVKPGASLKLSCEASGFTFSNYGMSWVRQTSDKRLEWVASISGGGGRTYYLDNVKGRFIISRENAKNTLYLQMSSLKSEDTALFYCARGARASYFAMDYWGQGSSVTVSS VL: VIVMTQSHKFMSTSVGDRVSITCKASQDVTTAVAWYQQKPGQSPKLLIYWASTRHTGVPDRFTGSGSGTDYSLTISNVQTEDLAFYYCQQHFTTPLTFGAGTKLELK | 0 | 1.76 | 0 | 0 | no binding (tested: 10 µg/ml) | no binding (tested: 10 µg/ml) |

Second part, the binder after the results:

| OD405 nm [1] [OD405] | OD405 nm [2] [OD405] | OD405 nm [3] [OD405] | OD405 nm [4] [OD405] | binding result [5] | binding result [6] | Binder |
| --- | --- | --- | --- | --- | --- | --- |
| 0 | 1.36 | 0 | 0 | no binding (tested: 10 µg/ml) | no binding (tested: 10 µg/ml) | F111-5E9 (antibody, V domains shown, also called F111-5E9-2; mAb 5E9) VH: QIQLVQSGPELKKPGETVKISCKASGYTFTKYGMNWVKQAPGKGLKWMGWINTYTGEPTYADDFKGRFAFSLETSASTAYLQINNLTTEDMVTYFCAKGGYYSNPIYPMDYWGQGTSVTVSS VL: DIQMTQTTSSLSASLGDRVTISCRASQDINNYLNWYQQKPDGTVKLLIYYISRLHSGVPSRFSGSGSGTDYSLTISNLELEDVATYFCQQGNTLPFTFGSGTKLEIK |
| 0 | 2.3 | 0 | 0 | no binding (tested: 10 µg/ml) | no binding (tested: 10 µg/ml) | F111-3C8 (antibody, V domains shown, also called F111-3C8-2) VH: QVQLQQPGAELGKPGTSVKLSCKASGYTFTSYWMHWVKRVPGQGLEWIGNINPNSTSADYNEKFKRKATLTVDKSSSTAYMQLSTLTSEDSAVYYCTRPLMGPYWYFDVWGTGTTVTVSS VL: QIVLTQSPAIMSASPGEKVTISCSASSSVSYMYWYQQKPGSSPKPWIYRTSNLASGVPARFSGSGSGTSYSLTISSMEAEDAATYYCQQYHNYPPTFGGGTKLEIK |
